Measurements reported in paper PMC8263624, “Asymmetric reconstruction of mammalian reovirus reveals interactions among RNA, transcriptional factor µ2 and capsid proteins” (Nature Communications, 2021).

B1: capsid shell protein (CSP) λ1 (natural protein)
chain: MKRIPRKTKGKSSGKGNDSTERADDGSSQLRDKQNNKAGPATTEPGTSNREQYKARPGIASVQRATESAEMPMKNNDEGTPDKKGNTKGDLVNEHSEAKDEADEATKKQAKDTDKSKAQVTYSDTGINNANELSRSGNVDNEGGSNQKPMSTRIAEATSAIVSKHPARVGLPPTASSGHGYQCHVCSAVLFSPLDLDAHVASHGLHGNMTLTSSDIQRHITEFISSWQNHPIVQVSADVENKKTAQLLHADTPRLVTWDAGLCTSFKIVPIVPAQVPQDVLAYTFFTSSYAIQSPFPEAAVSRIVVHTRWASNVDFDRDSSVIMAPPTENNIHLFKQLLNTETLSVRGANPLMFRANVLHMLLEFVLDNLYLNRHTGFSQDHTPFTEGANLRSLPGPDAEKWYSIMYPTRMGTPNVSKICNFVASCVRNRVGRFDRAQMMNGAMSEWVDVFETSDALTVSIRGRWMARLARMNINPTEIEWALTECAQGYVTVTSPYAPIVNRLMPYRISNAERQISQIIRIMNIGNNATVIQPVLQDISVLLQRISPLQIDPTIISNTMSTVSESTTQTLSPASSILGKLRPSNSDFSSFRVALAGWLYNGVVTTVIDDSSYPKDGGSVTSLENLWDFFILALALPLTTDPCAPVKAFMTLANMMVGFETIPMDNQIYTQSRRASAFSTPHTWPRCFMNIQLISPIDAPILRQWAEIIHRYWPNPSQIRYGAPNVFGSANLFTPPEVLLLPIDHQPANVTTPTLDFTNELTNWRARVCELMKNLVDNQRYQPGWTQSLVSSMRGTLDKLKLIKSMTPMYLQQLAPVELAVIAPMLPFPPFQVPYVRLDRDRVPTMVGVTRQSRDTITQPALSLSTTNTTVGVPLALDARAITVALLSGKYPPDLVTNVWYADAIYPMYADTEVFSNLQRDMITCEAVQTLVTLVAQISETQYPVDRYLDWIPSLRASAATAATFAEWVNTSMKTAFDLSDMLLEPLLSGDPRMTQLAIQYQQYNGRTFNIIPEMPGSVIADCVQLTAEVFNHEYNLFGIARGDIIIGRVQSTHLWSPLAPPPDLVFDRDTPGVHIFGRDCRISFGMNGAAPMIRDETGLMVPFEGNWIFPLALWQMNTRYFNQQFDAWIKTGELRIRIEMGAYPYMLHYYDPRQYANAWNLTSAWLEEITPTSIPSVPFMVPISSDHDISSAPAVQYIISTEYNDRSLFCTNSSSPQTIAGPDKHIPVERYNILTNPDAPPTQIQLPEVVDLYNVVTRYAYETPPITAVVMGVP
notes: capsid shell protein λ1 of mammalian reovirus serotype Dearing 3, native in the virus particle; 120 copies in each particle as λ1A/λ1B dimers; five pairs (1-5) around each vertex; also called λ1A; λ1B
B2: membrane penetration protein µ1 (natural protein)
chain 1: MGNASSIVQTINVTGDGNVFKPSAETSSTAVPSLSLSPGMLN
chain 2: PGGVPWIAVGDETSVTSPGALRRMTSKDIPETAIINTDNSSGAVPSESALVPYIDEPLVVVTEHAITNFTKAEMALEFNREFLDKMRVLSVSPKYSDLLTYVDCYVGVSARQALNNFQKQVPVITPTRQTMYVDSIQAALKALEKWEIDLRVAQTLLPTNVPIGEVSCPMQSVVKLLDDQLPDDSLIRRYPKEAAVALAKRNGGIQWMDVSEGTVMNEAVNAVAASALAPSASAPPLEEKSKLTEQAMDLVTAAEPEIIASLAPVPAPVFAIPPKPADYNVRTLRIDEATWLRMIPKSMNTPFQIQVTDNTGTNWHLNLRGGTRVVNLDQIAPMRFVLDLGGKSYKETSWDPNGKKVGFIVFQSKIPFELWTAASQIGQATVVNYVQLYAEDSSFTAQSIIATTSLAYNYEPEQLNKTDPEMNYYLLATFIDSAAITPTNMTQPDVWDALLTMSPLSAGEVTVKGAVVSEVVPADLIGSYTPESLNASLPNDAARCMIDRASKIAEAIKIDDDAGPDEYSPNSVPIQGQLAISQLETGYGVRIFNPKGILSKIASRAMQAFIGDPSTIITQAAPVLSDKNNWIALAQGVKTSLRTKSLSAGVKTAVSKLSSSESIQNWTQGFLDKVSAHFPAPKPDCPTSGDSGESSNRRVKRDSYAGVVKRGYTR
modifications: N-myristoyl group at the amino terminus
notes: N-terminal (N-myristoyl) fragment of penetration protein μ1 of mammalian reovirus serotype Dearing 3, up to the autolytic cleavage site between N42 and P43; penetration protein μ1 of mammalian reovirus serotype Dearing 3 from the autolytic cleavage site between N42 and P43 onwards; 600 copies (200 trimers) in each particle; also called μ1; penetration protein μ1; copies: 3 + 3
B3: mRNA capping protein λ2 (enzyme)
chain: MANVWGVRLADSLSSPTIETRTRQYTLHDLCSDLDANPGREPWKPLRNQRTNNIVAVQLFRPLQGLVLDTQLYGFPGAFDDWERFMREKLRVLKYEVLRIYPISNYSNEHVNVFVANALVGAFLSNQAFYDLLPLLIINDTMIGDLLGTGASLSQFFQSHGDVLEVAAGRKYLQMENYSNDDDDPPLFAKDLSDYAKAFYSDTYEVLDRFFWTHDSSAGVLVHYDKPTNGHHYLLGTLTQMVSAPPYIINATDAMLLESCLEQFSANVRARPAQPVTRLDQCYHLRWGAQYVGEDSLTYRLGVLSLLATNGYQLARPIPRQLTNRWLSSFVSQIMSDGVNETPLWPQERYVQIAYDSPSVVDGATQYGYVRKNQLRLGMRISALQSLSDTPSPVQWLPQYTIDQAAMDEGDLMVSRLTQLPLRPDYGNIWVGDALSYYVDYNRSHRVVLSSELPQLPDTYFDGDEQYGRSLFSLARKIGDRSLVKDTAVLKHAYQAIDPNTGKEYLRSRQSVAYFGASAGHSGADQPLVIEPWIQGKISGVPPPSSVRQFGYDVARGAIVDLARPFPSGDYQFVYSDVDQVVDGHDDLSISSGLVESLLSSCMHATAPGGSFVVKINFPTRPVWHYIEQKILPNITSYMLIKPFVTNNVELFFVAFGVHQHSSLTWTSGVYFFLVDHFYRYETLSTISRQLPSFGYVDDGSSVTGIETISIENPGFSNMTQAARIGISGLCANVGNARKSIAIYESHGARVLTITSRRSPASARRKSRLRYLPLIDPRSLEVQARTILPADPVLFENVSGASPHVCLTMMYNFEVSSAVYDGDVVLDLGTGPEAKILELIPATSPVTCVDIRPTAQPSGCWNVRTTFLELDYLSDGWITGVRGDIVTCMLSLGAAAAGKSMTFDAAFQQLIKVLSKSTANVVLVQVNCPTDVVRSIKGYLEIDSTNKRYRFPKFGRDEPYSDMDALEKICRTAWPNCSITWVPLSYDLRWTRLALLESTTLSSASIRIAELMYKYMPIMRIDIHGLPMEKRGNFIVGQNCSLVIPGFNAQDVFNCYFNSALAFSTEDVNAAMIPQVSAQFDATKGEWTLDMVFSDAGIYTMQALVGSNANPVSLGSFVVDSPDVDITDAWPAQLDFTIAGTDVDITVNPYYRLMTFVRIDGQWQIANPDKFQFFSSASGTLVMNVKLDIADKYLLYYIRDVQSRDVGFYIQHPLQLLNTITLPTNEDLFLSAPDMREWAVKESGNTICILNSQGFVLPQDWDVLTDTISWSPSIPTYIVPPGDYTLTPL
notes: mRNA capping protein λ2 of mammalian reovirus serotype Dearing 3, native in the virus particle; 60 copies forming 12 pentameric turrets; also called capping enzyme λ2; turret
B4: receptor binding protein σ1 (natural protein)
chain: MDPRLREEVVRLIIALTSDNGASLSKGLESRVSALEKTSQIHSDTILRITQGLDDANKRIIALEQSRDDLVASVSDAQLAISRLESSIGALQTVVNGLDSSVTQLGARVGQLETGLAELRVDHDNLVARVDTAERNIGSLTTELSTLTLRVTSIQADFESRISTLERTAVTSAGAPLSIRNNRMTMGLNDGLTLSGNNLAIRLPGNTGLNIQNGGLQFRFNTDQFQIVNNNLTLKTTVFDSINSRIGATEQSYVASAVTPLRLNSSTKVLDMLIDSSTLEINSSGQLTVRSTSPNLRYPIADVSGGIGMSPNYRFRQSMWIGIVSYSGSGLNWRVQVNSDIFIVDDYIHICLPAFDGFSIADGGDLSLNFVTGLLPPLLTGDTEPAFHNDVVTYGAQTVAIGLSSGGAPQYMSKNLWVEQWQDGVLRLRVEGGGSITHSNSKWPAMTVSYPRSFT
notes: 12 trimers in each particle; Seen only in the sub-particle reconstruction; also called σ1 trimer; σ1 spike

Biological target: the molecule itself
Experiment: cryo-EM structure; asymmetric (C1) vertex sub-particle reconstructions of native MRV ISVP at 3.3 Å, asymmetric full ISVP at 4.3 Å; isolated virus particles in PBS pH 7.4; proteins assembled in the particle, in situ

Compared with B1, B2 is higher in “stoichiometry N” value: 2 for the first, 3 for the second.

First: B3
Second: B4
The “stoichiometry N” value of the first is higher: 5 for the first, 3 for the second.
